Laboratory results from patent US4732933A, “Neocarzinostatin complexes, a method for producing the same, and an antitumor agent containing said complexes as an active component” (Kayaku Antibiotics Research Co., Ltd., priority 1982, dated 1988).

Legend:
[1] = tested on: normal fibroblasts of rabit; experiment: Cell toxicity to normal fibroblasts; type: cell-based; design: key to Cell toxicity to normal fibroblasts: +: Intensity of toxicity; -: No toxicity; settings: for Cell toxicity to normal fibroblasts: judgement after 3 days
Source text: Comparison of cell toxicity
to normal fibroblasts of rabit*
*Judgement after 3 days

[2] = Solubility of SMANX in various solvents compared with NCS and starting copolymer (Table 1); type: physicochemical; settings: concentration: 1 mg/ml
Description: |(concentration: 1 mg/ml)

cancer VX-2 of liver = experiment: Tumor affinity in cancer VX-2 of liver after intravenous injection; type: in vivo, rabit
Source text: Tumor affinity in cancer VX-2 of liver of
rabit after intravenous injection of SMANX

Compound | Cell toxicity to normal fibroblasts ([1]; 0.1 μg/ml) | Cell toxicity to normal fibroblasts ([1]; 1.0 μg/ml) | LD50 ([1]; footnote to Table 8 (Cf.)) [µg/mL] | Solubility in 10 mM aqueous solution of sodium bicarbonate [2] | Solubility in Acetone [2] | Solubility in Dioxane [2] | Solubility in Lipiodol [2] | Solubility in Methanol [2] | Solubility in Pyridine [2] | Solubility in Water pH 5.0 ([2]; pH 5.0) | Solubility in Water pH 8.0 ([2]; pH 8.0) | Tumor affinity, distant site (normal liver) (cancer VX-2 of liver; 10 mg/kg, 90') | Tumor affinity, interior of tumor (cancer VX-2 of liver; 10 mg/kg, 90') | Tumor affinity, distant site (normal liver) (cancer VX-2 of liver; 15') | Tumor affinity, interior of tumor (cancer VX-2 of liver; 15') | Tumor affinity, distant site (normal liver) (cancer VX-2 of liver; 60') | Tumor affinity, interior of tumor (cancer VX-2 of liver; 60')
neocarzinostatin [NCS] | - | + | 1.0 | soluble | insoluble | insoluble | insoluble | insoluble | insoluble | soluble | soluble | 0 | 0 | 0 | 0 | 0 | 0
CO[C@@]12[C@H](COC(N)=O)C3=C(C(=O)C(C)=C(N)C3=O)N1C[C@@H]1N[C@@H]12 [Mitomycin C, reference compound] | + |  |  |  |  |  |  |  |  |  |  |  |  |  |  |  | 
